Measured values: paper doi:10.1101/2020.02.18.953257

Target: human Replication Factor C (hRFC) with RFC1ΔN555 (human) (UniProt P35251)

## S228I-PCNA (from UniProt P12004 1-261) (natural protein)
  apparent Kd from hRFC ATPase activity as a function of PCNA concentration: 120 nM
